Test results from article PMC2116103.

Target: IGF1 receptor on embryonic chick spinal cord motoneurons (chick (endogenous in E6 spinal cord motoneurons))

| neurite growth from E6 chick motoneurons in vitro, half-maximal response [nM] | neurite growth from E6 chick motoneurons in vitro, half-maximal effect [nM] | Substance |
| --- | --- | --- |
| 0.2 | – | Recombinant human IGF1 (insulin-like growth factor 1), unlabeled (from UniProt P05019 22-118) (ligand) |
| – | 20 | Bovine pancreatic insulin (ligand) |
| – | 0.2 | Highly purified human IGF2 (insulin-like growth factor 2), unlabeled (from UniProt P01344 25-91) (ligand) |
